{"source": "paper PMC2680067", "about": "(European journal of human genetics : EJHG, 2008)", "proteins": {"B1": {"name": "myc-EGFP-Trim50 (full-length mouse Trim50), expressed in U2OS cells (natural protein)", "chain": "MAWRLTVPELQDQLQCPICLEVFKEPLMLQCGHSYCKDCLDNLSQHLDSELCCPVCRQSVDCSSSPPNVSLARVIDALRLPGDIEPTVCVHHRNPLSLFCEKDQEFICGLCGLLGSHQHHRVTPVSTVYSRMKEELAGRISELKEEHRNVEEHIGKLVNNRTRIINESDVFSWVIRREFQELHHLVDEEKARCLEGLEGHTRGLVASLDMQLEQAQGTQERLAQAEQVLEQFGNESHHEFIRFHSVASRAEVQQARPLEGVFSPISFKPALHQADIKLTVWKRLFRKVLPAPASLKLDPATAHPLLELSKGNTVVHCGLLAQRRASQPERFDYSTCVLASKGFSWGRHYWEVVVGSKSDWRLGVIKGTASRKGKLNKSPEHGVWLIGLKEGRVYEAFGCPRLPLPVAGHPHRIGVYLHYEQGELTFFDADRPDDLRTLYTFQADFQGKLYPILDTCWHERGSNSLPMVLPPPSGPGHFTLGQV"}}, "target": "the molecule itself", "assay": "cross-linking"}
{"protein": "B1", "values": [{"measurement": "stoichiometry N", "result": 3}]}
